{"source": "the supplement of paper PMC6757056", "parents": {"B1": {"name": "library; a variant is named by its letters at N, in order (parent)", "chain": "GCUGUCACCGAGAAACUGUGAAGUAUAUCUUAAACCUGGGCACUUAAAAGAUAUAUGGAGUUAGUAGUGCAACCUGCUCGGUCUGAUGAGUCCNNNNNNGGACGAAACAGC"}}, "key": {"[1]": {"variants_of": "B1", "assay": "normalized RNA/DNA level without ligand (relative to sTRSVctl = 100) (log10 (% of sTRSVctl)); HEK293T; ligand: cyclic di-GMP (c-di-GMP-II aptamer); higher = less ribozyme self-cleavage, higher mRNA level", "details": "reporter: mCherry (pCS4076), ligand present: no", "how_it_was_run": "(§1)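 For each 6-well well, 4 µg of library plasmid encoding mCherry-linked ribozyme switches, or eGFP-linked ones in some ligand experiments, was transfected into HEK293T. Any ligand was added 1 h before transfection, and RNA was extracted with EDTA 72 h after it, then reverse-transcribed, amplified, barcoded and sequenced. RNA level was obtained by dividing RNA reads by DNA reads, normalizing to a spiked-in non-cleaving sequence or to the top sequences, then scaling and log-transforming. The top set was 25 sequences, scaling was ×100 with log10, and ≥100 DNA reads were required.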"}, "[2]": {"variants_of": "B1", "assay": "normalized RNA/DNA level with ligand (relative to sTRSVctl = 100) (log10 (% of sTRSVctl)); HEK293T; ligand: cyclic di-GMP (c-di-GMP-II aptamer); ligand concentration (+) RNA-Seq: 1 mM; higher = less ribozyme self-cleavage, higher mRNA level", "details": "reporter: mCherry (pCS4076), ligand present: yes", "how_it_was_run": "as §1"}}, "note": "± gives the standard deviation of the averaged measurements."}
{"variant": "GGGAUC", "values": [{"measurement": "normalized RNA/DNA level without ligand (log10)", "setting": "[1]", "result": "1.66 ± 0.064"}, {"measurement": "normalized RNA/DNA level with ligand (log10)", "setting": "[2]", "result": "1.77 ± 0.09"}]}
{"variant": "GGGAUU", "values": [{"measurement": "normalized RNA/DNA level without ligand (log10)", "setting": "[1]", "result": "1.66 ± 0.024"}, {"measurement": "normalized RNA/DNA level with ligand (log10)", "setting": "[2]", "result": "1.77 ± 0.12"}]}
{"variant": "GGGCUC", "values": [{"measurement": "normalized RNA/DNA level without ligand (log10)", "setting": "[1]", "result": "1.88 ± 0.051"}, {"measurement": "normalized RNA/DNA level with ligand (log10)", "setting": "[2]", "result": "1.98 ± 0.042"}]}
{"variant": "GGCGCG", "values": [{"measurement": "normalized RNA/DNA level without ligand (log10)", "setting": "[1]", "result": "1.72 ± 0.034"}, {"measurement": "normalized RNA/DNA level with ligand (log10)", "setting": "[2]", "result": "1.83 ± 0.19"}]}
{"variant": "CGCUCC", "values": [{"measurement": "normalized RNA/DNA level without ligand (log10)", "setting": "[1]", "result": "1.77 ± 0.035"}, {"measurement": "normalized RNA/DNA level with ligand (log10)", "setting": "[2]", "result": "1.89 ± 0.084"}]}
{"variant": "CGCUCG", "values": [{"measurement": "normalized RNA/DNA level without ligand (log10)", "setting": "[1]", "result": "1.77 ± 0.077"}, {"measurement": "normalized RNA/DNA level with ligand (log10)", "setting": "[2]", "result": "1.88 ± 0.16"}]}
{"variant": "CGCUCA", "values": [{"measurement": "normalized RNA/DNA level without ligand (log10)", "setting": "[1]", "result": "1.47 ± 0.05"}, {"measurement": "normalized RNA/DNA level with ligand (log10)", "setting": "[2]", "result": "1.68 ± 0.15"}]}
{"variant": "CGCUAG", "values": [{"measurement": "normalized RNA/DNA level without ligand (log10)", "setting": "[1]", "result": "1.747 ± 0.0046"}, {"measurement": "normalized RNA/DNA level with ligand (log10)", "setting": "[2]", "result": "1.87 ± 0.15"}]}
{"variant": "AGGAAC", "values": [{"measurement": "normalized RNA/DNA level without ligand (log10)", "setting": "[1]", "result": "1.54 ± 0.12"}, {"measurement": "normalized RNA/DNA level with ligand (log10)", "setting": "[2]", "result": "1.68 ± 0.12"}]}
{"variant": "CGCUGG", "values": [{"measurement": "normalized RNA/DNA level without ligand (log10)", "setting": "[1]", "result": "1.67 ± 0.039"}, {"measurement": "normalized RNA/DNA level with ligand (log10)", "setting": "[2]", "result": "1.78 ± 0.086"}]}
{"variant": "CGCUGC", "values": [{"measurement": "normalized RNA/DNA level without ligand (log10)", "setting": "[1]", "result": "1.806 ± 0.0025"}, {"measurement": "normalized RNA/DNA level with ligand (log10)", "setting": "[2]", "result": "1.9 ± 0.092"}]}
{"variant": "AGCUAG", "values": [{"measurement": "normalized RNA/DNA level without ligand (log10)", "setting": "[1]", "result": "1.54 ± 0.026"}, {"measurement": "normalized RNA/DNA level with ligand (log10)", "setting": "[2]", "result": "1.72 ± 0.16"}]}
{"variant": "AGCUAA", "values": [{"measurement": "normalized RNA/DNA level without ligand (log10)", "setting": "[1]", "result": "1.49 ± 0.02"}, {"measurement": "normalized RNA/DNA level with ligand (log10)", "setting": "[2]", "result": "1.7 ± 0.13"}]}
{"variant": "AGCUAU", "values": [{"measurement": "normalized RNA/DNA level without ligand (log10)", "setting": "[1]", "result": "1.7 ± 0.05"}, {"measurement": "normalized RNA/DNA level with ligand (log10)", "setting": "[2]", "result": "1.84 ± 0.12"}]}
{"variant": "AGCUAC", "values": [{"measurement": "normalized RNA/DNA level without ligand (log10)", "setting": "[1]", "result": "1.709 ± 0.017"}, {"measurement": "normalized RNA/DNA level with ligand (log10)", "setting": "[2]", "result": "1.81 ± 0.14"}]}
{"variant": "GGCUGG", "values": [{"measurement": "normalized RNA/DNA level without ligand (log10)", "setting": "[1]", "result": "1.746 ± 0.013"}, {"measurement": "normalized RNA/DNA level with ligand (log10)", "setting": "[2]", "result": "1.82 ± 0.092"}]}
{"variant": "GGCUGA", "values": [{"measurement": "normalized RNA/DNA level without ligand (log10)", "setting": "[1]", "result": "1.54 ± 0.052"}, {"measurement": "normalized RNA/DNA level with ligand (log10)", "setting": "[2]", "result": "1.71 ± 0.14"}]}
{"variant": "GGCUGC", "values": [{"measurement": "normalized RNA/DNA level without ligand (log10)", "setting": "[1]", "result": "1.7019 ± 0.0016"}, {"measurement": "normalized RNA/DNA level with ligand (log10)", "setting": "[2]", "result": "1.83 ± 0.11"}]}
{"variant": "GGCUGU", "values": [{"measurement": "normalized RNA/DNA level without ligand (log10)", "setting": "[1]", "result": "1.68 ± 0.05"}, {"measurement": "normalized RNA/DNA level with ligand (log10)", "setting": "[2]", "result": "1.79 ± 0.18"}]}
{"variant": "AGGCCU", "values": [{"measurement": "normalized RNA/DNA level without ligand (log10)", "setting": "[1]", "result": "1.768 ± 0.013"}, {"measurement": "normalized RNA/DNA level with ligand (log10)", "setting": "[2]", "result": "1.89 ± 0.099"}]}
{"variant": "AGGCCC", "values": [{"measurement": "normalized RNA/DNA level without ligand (log10)", "setting": "[1]", "result": "1.86 ± 0.05"}, {"measurement": "normalized RNA/DNA level with ligand (log10)", "setting": "[2]", "result": "1.95 ± 0.1"}]}
{"variant": "AGGCCA", "values": [{"measurement": "normalized RNA/DNA level without ligand (log10)", "setting": "[1]", "result": "1.721 ± 0.017"}, {"measurement": "normalized RNA/DNA level with ligand (log10)", "setting": "[2]", "result": "1.85 ± 0.096"}]}
{"variant": "UGGGUU", "values": [{"measurement": "normalized RNA/DNA level without ligand (log10)", "setting": "[1]", "result": "1.717 ± 0.016"}, {"measurement": "normalized RNA/DNA level with ligand (log10)", "setting": "[2]", "result": "1.82 ± 0.16"}]}
{"variant": "UGGGUC", "values": [{"measurement": "normalized RNA/DNA level without ligand (log10)", "setting": "[1]", "result": "1.8 ± 0.026"}, {"measurement": "normalized RNA/DNA level with ligand (log10)", "setting": "[2]", "result": "1.93 ± 0.11"}]}
{"variant": "UGGGUA", "values": [{"measurement": "normalized RNA/DNA level without ligand (log10)", "setting": "[1]", "result": "1.61 ± 0.071"}, {"measurement": "normalized RNA/DNA level with ligand (log10)", "setting": "[2]", "result": "1.78 ± 0.029"}]}
{"variant": "UGGGUG", "values": [{"measurement": "normalized RNA/DNA level without ligand (log10)", "setting": "[1]", "result": "1.73 ± 0.04"}, {"measurement": "normalized RNA/DNA level with ligand (log10)", "setting": "[2]", "result": "1.86 ± 0.098"}]}
{"variant": "AGGUCG", "values": [{"measurement": "normalized RNA/DNA level without ligand (log10)", "setting": "[1]", "result": "1.738 ± 0.013"}, {"measurement": "normalized RNA/DNA level with ligand (log10)", "setting": "[2]", "result": "1.82 ± 0.11"}]}
{"variant": "AGGUCC", "values": [{"measurement": "normalized RNA/DNA level without ligand (log10)", "setting": "[1]", "result": "1.86 ± 0.022"}, {"measurement": "normalized RNA/DNA level with ligand (log10)", "setting": "[2]", "result": "1.94 ± 0.08"}]}
{"variant": "AGGUCU", "values": [{"measurement": "normalized RNA/DNA level without ligand (log10)", "setting": "[1]", "result": "1.73 ± 0.045"}, {"measurement": "normalized RNA/DNA level with ligand (log10)", "setting": "[2]", "result": "1.85 ± 0.14"}]}
